Tested on: MS2 coat protein
Experiment: apparent KD of MS2 coat protein; designed switch direction (-1 OFF switch, 1 ON switch): -1; higher = weaker reporter binding
Procedure, shortened: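 On Illumina chips, designed RNA switches with common flanks were made by stalled E. coli RNA polymerase. Titrations with SNAP-549-labelled MS2 coat protein, doubling from 0.7 or 1.5 nM to 3 µM, were done with no input, with 200 uM small-molecule ligand, or with an oligonucleotide input. Apparent KD is the median per design over clusters, from curve fits of normalised cluster fluorescence.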

[1] = input ligand: microRNA oligo, concentration not stated
[2] = Eterna round: R95, input ligand: microRNA oligo, concentration not stated
[3] = Eterna round: R95, input ligand: FMN 200 uM
[4] = Eterna round: R95, input ligand: none

Sequence	apparent KD of MS2 coat protein (input ligand: FMN 200 uM) [nM]	apparent KD of MS2 coat protein [1] [nM]	apparent KD of MS2 coat protein (input ligand: none) [nM]	apparent KD of MS2 coat protein [2] [nM]	apparent KD of MS2 coat protein [3] [nM]	apparent KD of MS2 coat protein [4] [nM]
AGGGUAAAGUUAGGAUAUGCGAAUAAUCCAGACGCAGAAGGAACAGGUCGCAUGUGAGUCACAUGAGGAUCACCCAUGUAACUA [Ceissoar] (Eterna round: R96, puzzle: Exclusion NG 1)	143	29.6	36.1			
AGGUCACAUGAGGAUCACCCAUGUCAGGAUAUCGUCACUGGAGCCUCGGCUCCAGUGACGAGAAGGGAUAAUUA [E1/8-A2] (Eterna round: R97, puzzle: Exclusion 1)	75.3		50.5			
AGGUCACAUGAGGAUCACCCAUGUGAGGAUAUUUACUCAAGAGCUUCGGCUCUCAGGUGAAGAAGGCGCAAUGA [EX1 #54] (Eterna round: R97, puzzle: Exclusion 1)	27.2		30			
AGGUCCUUCUGGAGACAUGAGGAUCACCCAUGUCGGGUCAGCGAGGAUAUCGGUUAAUAAUGUGACGAGAAGGCGCGGACCGAU [Ex NG3 #56] (Eterna round: R96, puzzle: Exclusion NG 3)	104	19.5	24.9			
AGGUGUAGAGGAUAUCGAGUCCUUUACAUGAGGAUCACCCAUGUCCUGGGCACCCAGGACCGAGAAGGCUACACCA [Omei Ex5 D32] (Eterna round: R97, puzzle: Exclusion 5)	353		223			
AGGUGUAGAGGAUAUCUCUUCUCUCACAUGAGGAUCACCCAUGUCCUAAAGUCCUAGGAGAGAGAAGGCUACACCA [Omei Ex5 D3] (Eterna round: R97, puzzle: Exclusion 5)	230		82.8			
AGGUUGGGCGCAUCUUGCCACAUGAGGAUCACCCAUGUUGUACCAUUAGAAGAGAACAAGCUCUUUGCUCGUCUUAU [Sensor 1 S2] (Eterna round: R97, puzzle: Sensor, turn-off variant 1)	32		39.5			
AGUAACAGAGGAUAUACUAUUUUAUGUGUUUGUUAUUUUGAACAUGAGGAUCACCCAUGUAGAAGGCUGAAUAA [JMF 93] (puzzle: Exclusion 2)				24		
AGUAACCGGGCUUUUUGCUACAUGAGGAUCACCCAUGUUUAAGCGGAGGGAUUGAUCGUCCUAAAUUCUUUAGUCGG [Eternabot (L2) Solution 8] (Eterna round: R97, puzzle: Sensor, turn-off variant 1)	16.8		17.4			
AGUAACCGUCACGAAAGUGAUGGUUACACAAGCAUAUGUACAUGAGGAUCACCCAUGUCCUCAACUGCUCGUCUUAU [Sensor 3 - 55] (puzzle: Sensor v3, turn-off variant 2)				385	296	424
AGUAACUAUCACGAAAGUGAUAGUUACAAAACAAGUGGAACAUGAGGAUCACCCAUGUCCUCAUUUGCUCGUCUUAU [Sensor 3 - 4] (puzzle: Sensor v3, turn-off variant 2)				238	107	166
AGUAACUAUCACGAAAGUGAUAGUUACAAAACAGGUGAAACAUGAGGAUCACCCAUGUCCUCAUUUGCUCGUCUUAU [Sensor 3 - 3] (puzzle: Sensor v3, turn-off variant 2)				384	793	857
AGUAACUAUCACGAAAGUGAUAGUUACACAAGCAGUGAAACAUGAGGAUCACCCAUGUCCUCAAUUGCUCGUCUUAU [Sensor 3 - 31] (puzzle: Sensor v3, turn-off variant 2)				194	47.8	49.6
AGUAACUCAAGAGGAUAUCACAUGAGGAUCACCCAUGUAUAGCGCGCUGCGCUAGUCCUCGUAUUUGAGAAGGUUUGAUAAAUG [Riausve] (Eterna round: R96, puzzle: Exclusion NG 2)	13	10.8	15.7			
AGUAAGCUAGGAUAUGCUUUGGGAAAGCAUUCCUUCGAUAAACUUGAGGAUCACCCAAGUAGAAGGAGCUAAAU [jl-ex2.4.49 ViennaUCT mod] (Eterna round: R97, puzzle: Exclusion 2)	17.5		15.4			
AGUAAGCUAGGAUAUGCUUUGGGAAAGCAUUCCUUCGAUAAACUUGAGGAUCACCCAAGUAGAAGGAGCUUACA [salish99_ex2_r4_004] (Eterna round: R97, puzzle: Exclusion 2)	20.2		13.8			

Sequence	apparent KD of MS2 coat protein (input ligand: FMN 200 uM) [nM]	apparent KD of MS2 coat protein [1] [nM]	apparent KD of MS2 coat protein (input ligand: none) [nM]	apparent KD of MS2 coat protein [2] [nM]	apparent KD of MS2 coat protein [3] [nM]	apparent KD of MS2 coat protein [4] [nM]
AGUACGAUGCGUGCUGACAUGCGUCGUGCAGCAGGUGAUACAUGAGGAUCACCCAUGUCCUCAUUUGCUCGUCUUGA [Mat - Sensor v3 - Turn-off var 2 - D19] (puzzle: Sensor v3, turn-off variant 2)				499	28.5	28.4
AGUACUAACACGAAAGUGUUAGUACAAUAAGCUUGUAUUACAUGAGGAUCACCCAUGUCCUCAUAAGCUCGUCUUAU [Mat - Sensor v3 - Turn-off var 2 - D46] (puzzle: Sensor v3, turn-off variant 2)				14	316	881
AGUACUAACACGAAAGUGUUAGUACAAUAAGCUUGUGAAACAUGAGGAUCACCCAUGUCCUCAUAAGCUCGUCUUAG [salish99_TOv2_r3_003] (puzzle: Sensor v3, turn-off variant 2)				280	16.4	15.4
AGUACUAACACGAAAGUGUUAGUACAAUAAGCUUGUGAAACAUGAGGAUCACCCAUGUCCUCAUGAGCUCGUCUUAU [salish99_TOv2_r3_051] (puzzle: Sensor v3, turn-off variant 2)				5.95	77.8	67.9
AGUACUAACACGAAAGUGUUAGUACUGUAGGUUUGUGUUACAUGAGGAUCACCCAUGUCCUCAUAAGCUCGUCUUGU [Mat - Sensor v3 - Turn-off var 2 - D96] (puzzle: Sensor v3, turn-off variant 2)				152	380	368
AGUACUAACACGAAAGUGUUAGUUCAAUAAGCUUGUGAAACAUGAGGAUCACCCAUGUCCUCAUAAGCUCGUCUUAU [salish99_TOv2_r3_040] (Eterna round: R96, puzzle: Sensor v3, turn-off variant 2)	15.2	461	17.5			
AGUACUAACACGAAAGUGUUAGUUCAAUAAGCUUGUGAAACAUGAGGAUCACCCAUGUCCUCAUAAGCUCGUCUUAU [salish99_TOv2_r3_040] (puzzle: Sensor v3, turn-off variant 2)				856	15.8	15
AGUACUAACACGAACGUGUUAGUACAAUAAGCUUGUGAAACAUGAGGAUCACCCAUGUCCUCAUAAGCUCGUCUUAU [salish99_TOv2_r3_034] (puzzle: Sensor v3, turn-off variant 2)				775	17.9	16.2
AGUACUAACACGACAGUGUUAGUACAAUAAGCUUGUGAAACAUGAGGAUCACCCAUGUCCUCAUAAGCUCGUCUUAU [salish99_TOv2_r3_031] (Eterna round: R96, puzzle: Sensor v3, turn-off variant 2)	15.4	431	17.2			
AGUACUAACACGACAGUGUUAGUACAAUAAGCUUGUGAAACAUGAGGAUCACCCAUGUCCUCAUAAGCUCGUCUUAU [salish99_TOv2_r3_031] (puzzle: Sensor v3, turn-off variant 2)				867	18.8	15.2
AGUACUAACACGAUAGUGUUAGUACAAUAAGCUUGUGAAACAUGAGGAUCACCCAUGUCCUCAUAAGCUCGUCUUAU [salish99_TOv2_r3_030] (Eterna round: R96, puzzle: Sensor v3, turn-off variant 2)	15.1	507	17.3			
AGUACUAACACGAUAGUGUUAGUACAAUAAGCUUGUGAAACAUGAGGAUCACCCAUGUCCUCAUAAGCUCGUCUUAU [salish99_TOv2_r3_030] (puzzle: Sensor v3, turn-off variant 2)				993	14.5	14.6
AGUACUAACACGAUAGUGUUAGUACUAUAAGCUUGUGUUACAUGAGGAUCACCCAUGUCCUCAUAAGCUCGUCUUAG [Mat - Sensor v3 - Turn-off var 2 - D66] (puzzle: Sensor v3, turn-off variant 2)				83.2	39.8	41.6
AGUACUAACACGUAAGUGUUAGUACAAUAAGCUUGUGAAACAUGAGGAUCACCCAUGUCCUCAUAAGCUCGUCUUAU [salish99_TOv2_r3_025] (puzzle: Sensor v3, turn-off variant 2)				659	17.9	15.4
AGUACUAUCACGAAAGUGAUAGUACAAAUAAGCUUUAGAACAUGAGGAUCACCCAUGUCCUCUUAAGCUCGUCUUAU [Mat - Sensor v2 -ver2- JL mod - D56] (Eterna round: R96, puzzle: Sensor v2, turn-off variant 2)	14.8	143	17.1			

Reference: the supplement of paper PMC9170038
